Sequences and labels used below:
B1: sd1.100 (antibody, V domains shown)
VH: QVQLQESGPGLVKPSQTLSLTCSVSGDSITSGNYYWSWIRQHPGKGLEWIGNIFHTGNTYYNPSLKSRVTISIDTSKNQFSLKLSSVTAADTALYYCARDHKRLEGDWFDPWGQGSLVTVSS
VL: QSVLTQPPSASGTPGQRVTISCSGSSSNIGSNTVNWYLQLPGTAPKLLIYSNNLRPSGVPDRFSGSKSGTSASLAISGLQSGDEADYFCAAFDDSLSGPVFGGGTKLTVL
B2: rbd.046 (antibody, V domains shown)
VH: EVQLVESGGGVVQPGRSLRLSCAASGFTFSHYGMHWVRQAPGKGLEWVAVISYDGSNKYYADSVKGRFTISRDNSKSTLYLQMNSLRAEDTAVYYCAKGEWYYDIFTGYYPYWGQGTLVTVSS
VL: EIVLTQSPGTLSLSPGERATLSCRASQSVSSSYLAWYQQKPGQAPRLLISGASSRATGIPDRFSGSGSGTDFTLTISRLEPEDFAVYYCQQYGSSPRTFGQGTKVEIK
B3: sd1.151 (antibody, V domains shown)
VH: EVQLVESGGGLVKPGGSLRLSCAVSGFTFSNAWMTWVRQAPGKGLEWVGRIKTKPEGGTTDYATPVKGRFTISRDDSIDTLYLQMNSLKTEDTAVYYCSTFSSPDHWGQGTLVTVSS
VL: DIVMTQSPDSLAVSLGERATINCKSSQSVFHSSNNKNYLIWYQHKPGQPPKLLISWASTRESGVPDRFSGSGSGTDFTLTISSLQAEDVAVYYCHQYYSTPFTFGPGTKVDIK
B4: sd1.033 (antibody, V domains shown)
VH: QVQLVQSGAEVKKPGSSVKVSCKASGGVYSTYAVSWVRQAPGQGLEWIGGIIPMFGTANYAQNFQGRVTITADESTRTAYMEVSSLRSEDTAVYYCASPSAPTYYYDSSRYYSFDYWGQGTLVTVSS
VL: EIVLTQSPGTLSLSPGERATLSCRASQSVSSNFLAWFQQKPGQPPRLLIYGASSRATGIPDRFSGSGSGTDFTLTISRLVPEDFAVYFCQQYGSSRYSFGQGTKLEIK
B5: sd1.103 (antibody, V domains shown)
VH: QVQLVQSGAEVKKPGSSMKVSCKASGGTLNNYAIIWVRQAPGQGLEWMGGIIPMFGAANYAQNFQGRVTITADESTRTAYLELSSLRSEDTAMYYCARVVIPYLGAHYYHYGVDVWGQGTTVTVSS
VL: EIVLTQSPGTLSLSPGERATLSCRASQSVTSNYLAWYQQKPGQAPRLLIYGASSRAAGIPDRFNGSGSGTDFTLTISRLEPEDFAVYYCQQYGSSRYTFGQGTKLEIK
B6: rbd.035 (antibody, V domains shown)
VH: EVQLLESGGGLIEPGGSLRLSCAASGFPFNTFAMTWVRQPPGKGLEWVATISSRGDYTFYADFVKGRFSISRDNANNALWLDMSGLRAEDTALYYCAKGESGYDLYLYGLDLWGQGTTVTVSS
VL: DIQMTQSPSSLSASVGDGVTITCRASQNINNYLSWYQKKAGKAPKLLIYGASTLHSGVPSRFSGSGSGTDFTLTISSLQPEDFASYYCQQNSPTPPWTFGQGTKVEIK
B7: sd1.034 (antibody, V domains shown)
VH: EVQLVESGGGVVQPGRSLRLSCAASGFSFSNYGMHWVRQAPGKGLEWVAVISYDGSHKSFADSVKGRFTISRDNSKNTLNLQMNSLRREDTAVYYCATDQGGSLGYWGQGTLVTVSS
VL: QSALTQPASVSGSPGQSITISCTGTSGDVGGYNYVSWYQHHPGKAPKLMIYDVSNRPSGVSNRFSGSKSGNTASLTISGLQAEDEADYYCSSYTSTSTSWVFGGGTKLTVL
B8: rbd.031 (antibody, V domains shown)
VH: EVQLVESGGGVVQPGRSLRLSCAASGFTFKTYGMHWVRQAPGKGLEWVAVISYEGSNEYYAESVKGRFTISRDNSKNTLYLHMNSLRAEDTAVYYCAKGEYYYHSSTYYYLDYWGRGTLVTVSS
VL: DIQMTQSPSTLSASVGDRVTITCRASQSISSWLAWYQQKPGKAPKVLIYDASSLQSGVPLRFSGSGSGTEFTLTISSLQPDDFATYYCQQYDTYWTFGQGTKVEIK
B9: rbd.038 (antibody, V domains shown)
VH: QVQLVQSGAEVKKPGASVKVSCKASGYTFSGYYMHWVRQAPGQGLEWVGWISPTSGGTKYAQKFQGRVTMTRDTSITTVYMELNRLRSDDTAVYYCAREPFPYCTSDICHSNYFYYYAMDVWGQGTTVTVSS
VL: QSALTQPPSASGSPGQSVTISCTGSSSDLGDHNYVSWYQQHPGKAPKVMIYEVSKRPSGVPDRFSGSKSGNTASLTVSGLQAEDEADYYCSSYAGSLYVFGTGTKVTVL
B10: sd1.129 (antibody, V domains shown)
VH: QVQLVQSGAEVKRPGSSVKVSCKASGGAFSNYAISWVRQAPGQGLEWMGGIIPIFGTTNYAQRFQGRVTISADESTGTAYMELSSLRFADTAIYYCARADAYSGSYYPSANWFDPWGQGTLVTVSS
VL: EIVLTQSPATLSLSPGERATLSCRASQSVSNYLAWYQQKPGQAPRLLIYDASNRATGIPARFSGSGSGTDFTLTISSLEPEDFAVYYCQQRQNWPPGWTFGQGTKVEIK
B11: rbd.045 (antibody, V domains shown)
VH: QVQLQESGPGLVKPSETLSLTCTVSGGAFRSFFWTWIRQPPGKGLEWIGNIYYSGSTNYNPSLKSRVTISQDMSENQFSLKLSSVTAADTAVYYCARSQWLRGNFDHWGQGILVTVSS
VL: NFMLTQPHSVSESPGKTVTISCTATSGYIASNYVQWYQQRPGSAPTTVIYEDNQRPSGVPDRFSGSIDSSSNSASLTISGLKPEDEADYYCQSFDTAYAVFGGGTQLTVL
B12: rbd.043 (antibody, V domains shown)
VH: QVQLVQSGAEVKKPGSSVKVSCKVSGGSFSNYGISWVRQAPGQGLEWMGGIIPLFGPADYAQKVQGRVTITADKSTSTAYMELRSLRSEDTAVYFCARGVEIVATIVGPLVREDHYYYYGMDVWGQGTTVTVSS
VL: not shown
B13: sd1.132 (antibody, V domains shown)
VH: QVQLVQSGTEVKKPGSSVKVSCKASGGTFSSYAISWVRQAPGQGLEWMGGIIPMFGAPNYAQKVQGRVTITADESTSTAYMELSSLRSEDTAVYYCARMEYSNSPGRGGYYFYSNGMDVWGQGTTVTVSS
VL: EIVLTQSPATLSLSPGERATLSCRASQSVSTYLAWLQQKPGQAPRLLMYDASNRASGIPARFSGSGSGTEFTLTISSLEPEDFAVYYCQQRTYWPLTFGGGTKVEIK
B14: sd1.047 (antibody, V domains shown)
VH: EVQLVESGGGVVEPGRSLRLSCVASGFPFKNYGMHWVRQAPGKGLEWMAVISYDGRLEYYAESVQGRFTISRDTSRKTLYLQMDSLRVDDTAVYYCAKDGVMGFCSGDDCTPPFDSWGQGTLVTVSS
VL: QSALTQPASVSGSPGQSITISCTGTSSDVGGYNYVSWFQQYPGKAPQLLIYEVSNRPSGVSNRFSGSKSGNTASLTISGLQAEDEADYYCSSYAGSPYVFGIGTRVTVL
B15: sd1.150 (antibody, V domains shown)
V domain 1: EVQLVESGGGVVQPGRSLRLSCAASGFTFSSHGMHWVRQAPGRGLEWVAVISFDGRNKFYVDSVKGRFTISRDNSKNTLYLHMNSLRAADTAVYYCAKDHDPDGSGSYFSNWFDAWGQGTLVTVSS
V domain 2: SYELTQPPSVSVSPGQTASITCSGDKLGDKYAYWYRQKPGQSPVVVIYQDNKRPSGIPERFSGSNSGNTATLTISGTQAMDEADYYCQAWDTYSGVFGTGTQVTVL
B16: sd1.107 (antibody, V domains shown)
VH: QVQLVQSGAEVKKPGSSVKVSCKASGGTFSSYAISWVRQAPGQGLEWMGGIIPMFGTTNYAQKFQGRVTITADESTSTAYMELSSLRSEDTAVYYCARVTHLNWRRGYEVGRISGAFDIWGQGTMVTVSS
VL: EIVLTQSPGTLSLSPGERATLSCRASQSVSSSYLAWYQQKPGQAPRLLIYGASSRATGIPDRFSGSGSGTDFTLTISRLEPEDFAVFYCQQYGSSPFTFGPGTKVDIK
B17: sd1.108 (antibody, V domains shown)
VH: QVQLVQSGAEVKKPGASVKVSCKASGYTFTSYYIHWVRQTPGQGLEWMGIINPRGGSTSYPQKFQGRVSMTRDTSTSTVFMELSSLRSDDTAVYYCAREHREDTAMDNQPSDSWGQGTLVTVSS
VL: DIVMTQSPDSLSVSLGERATINCKSSRSVFYSSNNKSYLAWYQQKPGQPPKLLIYWASTRESGVRDRFSGSGSGTDFTLTISSLQAEDVAVYYCQQYYNTPYTFGQGTKLEIK
B18: rbd.048 (antibody, V domains shown)
VH: EVQLVESGGGLVQPGGSLRLSCAASGFTVSSNYMTWVRQAPGKGLEWVSVIYSGGSTFYTDSVKGRFTISRDNSKNTLYLQMNSLRAEDTAVYYCARDVVYYGMDVWGQGTTVTVSS
VL: DIQMTQSPSSLSASVGDRVTITCRASQSISSYLNWYQQKPGKAPKLLIYAASSLQSGVPSRFSGSGSGTDFTLTISSLQPEDFATYYCQESYSNSPYTFGQGTKLEIK
B19: sd1.102 (antibody, V domains shown)
VH: QVQLVQSGAEVKKPGSSVKVSCKASGGTFSSYAISWVRQAPGQGLEWMGGIIPLYGTANYAQKFQGRVTITADESTSTTYMELSSLTSEDTAVYYCVRFRGGDYYYYYGMDVWGQGTTVTVSS
VL: EIVMTQSPATLSVSPGESATLSCRASQTVSTNLAWYQQKPGQAPRLLIFGASTRATGIPARFSGSGSGTEFTLSISSLQSEDFAVYYCHQYNSRRTFGQGTKLEIK
B20: sd1.039 (antibody, V domains shown)
VH: EVQLVQSGAEVKKPGESLKISCKASGYSFPTYWIGWVRQMPGKGLEWMGIIYPGDSDTRYSPSFQGQVTISADKSISTAYLQWSSLKASDTAIYYCARYGDSHIDSWGQGTLVTVSS
VL: QSVLTQPRSASASLGASVTLNCTLSSGYSKYKVEWYQQRPGKGPRFLMRVGAGGIVGSKGDGIPDRFSVLGSGLNRYLIIKNIQQEDESDYHCGADHGSGSNFAYVVFGGGTKLTVL
B21: sd1.032 (antibody, V domains shown)
VH: QVQLVQSGAEVKRPGSSVKVSCKASGGTFNNYAMTWVRQAPGQGLEWMGGIIPMLGTENYAQKFQGRVTITADESTSTAHMELSSLRSEDTAVYYCARLTVPTPHSYYSYGLDAWGQGTTVTVSS
VL: QSALTQPASVSGSPGQSITISCTGTSSDVGSYNLVSWFQQHAGRAPKLMIYEGNKRPSGISNRFSGSKSGNTASLTISGLQAEDEADYYCCSYAGSSTHVFGTGTKVTVL
B22: sd1.127 (antibody, V domains shown)
VH: EVQLVESGGALVKPGGSLTLSCVASGFTFSHAWMTWVRQAPGKGLEWVGRIKTKTEGGTIDYAAPLRGRFTISRDDSKNTLYLRMNSLKIEDTAKYYCTTHSSPDYWGQGTLVTVSS
VL: DIQMTQSPSSLSASIGDRVTITCRASQGIGNSLLWYQQKRGKVPKLLIYAASTLQSGVPSRFSGSGSGTDFTLTISSLQPEDVATYYCQRYNSAPLTFGGGTKVEIK

The assay addresses SD1-RBD of SARS-CoV-2 S (ancestral), aa 319-591 (SARS-CoV-2, ancestral (Wuhan-Hu-1; …, UniProt P0DTC2).
For the molecule B1, the binding result is recorded as “binds”. For B2 the value was “binds”; for B3, “binds”; for B4, “binds”. As to B5, the binding result is “binds”.

Turning to B6, the binding result is given as “binds”. For the molecule B7, the binding result is recorded as “binds”. Then B8, with “binds”. For B9 the value was “binds”; for B10, “binds”; for B11, “binds”. B12: the binding result was “binds”. Then B13, with “binds”; and B14, with “binds”; and B15, with “binds”. Then B16, with “binds”; and B17, with “binds”; and B18, with “binds”.

Take B19: the binding result is “binds”. Then B20, with “binds”. Take B21: the binding result is “binds”. For B22 the value was “binds”.

The record behind these values is publication PMC9972897 (Science immunology, 2023).
